Reference: patent US20020055130A1, “Method and product for regulating apoptosis” (National Jewish Center for Immunology and Respiratory …, priority 1997, published 2002)

B1: p35: baculovirus protein with broad inhibitory activity to ICE/FLICE-like proteases (protein, UniProt P08160 1-299, looked up)
Early 35 kDa protein: MCVIFPVEIDVSQTIIRDCQVDKQTRELVYINKIMNTQLTKPVLMMFNISGPIRSVTRKNNNLRDRIKSKVDEQFDQLERDYSDQMDGFHDSIKYFKDEHYSVSCQNGSVLKSKFAKILKSHDYTDKKSIEAYEKYCLPKLVDERNDYYVAVCVLKPGFENGSNQVLSFEYNPIGNKVIVPFAHEINDTGLYEYDVVAYVDSVQFDGEQFEEFVQSLILPSSFKNSEKVLYYNEASKNKSMIYKALEFTTESSWGKSEKYNWKIFCNGFIYDKKSKVLYVKLHNVTSALNKNVILNTIK
B2: DTVD→A: MEKK1 mutant with DTVD (amino acids 871-874) substituted with alanines (protein, UniProt P53349 2-1493, looked up, variant D871A T872A V873A D874A)
Mitogen-activated protein …: AAAAGDRASSSGFPGAAAASPEAGGGGGGGGALQGSGAPAAGAAGLLREPGSAGRERADWRRRQLRKVRSVELDQLPEQPLFLAAASPPCPSTSPSPEPADAAAGASRFQPAAGPPPPGAASRCGSHSAELAAARDSGARSPAGAEPPSAAAPSGREMENKETLKGLHKMEDRPEERMIREKLKATCMPAWKHEWLERRNRRGPVVVKPIPIKGDGSEVNNLAAEPQGEGQAGSAAPAPKGRRSPSPGSSPSGRSVKPESPGVRRKRVSPVPFQSGRITPPRRAPSPDGFSPYSPEETSRRVNKVMRARLYLLQQIGPNSFLIGGDSPDNKYRVFIGPQNCSCGRGAFCIHLLFVMLRVFQLEPSDPMLWRKTLKNFEVESLFQKYHSRRSSRIKAPSRNTIQKFVSRMSNSHTLSSSSTSTSSSENSIKDEEEQMCPICLLGMLDEESLTVCEDGCRNKLHHHCMSIWAEECRRNREPLICPLCRSKWRSHDFYSHELSSPVESPASLRAVQQPSSPQQPVAGSQRRNQESSFNLTHFGTQQIPSAYKDLAEPWIQVFGMELVGCLFSRNWNVREMALRRLSHDVSGALLLANGESTGNSGGGSGGSLSAGAASGSSQPSISGDVVEACCSVLSIVCADPVYKVYVAALKTLRAMLVYTPCHSLAERIKLQRLLRPVVDTILVKCADANSRTSQLSISTVLELCKGQAGELAVGREILKAGSIGVGGVDYVLSCILGNQAESNNWQELLGRLCLIDRLLLEFPAEFYPHIVSTDVSQAEPVEIRYKKLLSLLTFALQSIDNSHSMVGKLSRRIYLSSARMVTAVPAVFSKLVTMLNASGSTHFTRMRRRLMAIADEVEIAEVIQLGVEAAAAGHQDSLQAVAPTSCLENSSLEHTVHREKTGKGLSATRLSASSEDISDRLAGVSVGLPSSTTTEQPKPAVQTKGRPHSQCLNSSPLSHAQLMFPAPSAPCSSAPSVPDISKHRPQAFVPCKIPSASPQTQRKFSLQFQRNCSEHRDSDQLSPVFTQSRPPPSSNIHRPKPSRPVPGSTSKLGDATKSSMTLDLGSASRCDDSFGGGGNSGNAVIPSDETVFTPVEDKCRLDVNTELNSSIEDLLEASMPSSDTTVTFKSEVAVLSPEKAENDDTYKDDVNHNQKCKEKMEAEEEEALAIAMAMSASQDALPIVPQLQVENGEDIIIIQQDTPETLPGHTKAKQPYREDAEWLKGQQIGLGAFSSCYQAQDVGTGTLMAVKQVTYVRNTSSEQEEVVEALREEIRMMGHLNHPNIIRMLGATCEKSNYNLFIEWMAGGSVAHLLSKYGAFKESVVINYTEQLLRGLSYLHENQIIHRDVKGANLLIDSTGQRLRIADFGAAARLASKGTGAGEFQGQLLGTIAFMAPEVLRGQQYGRSCDVWSVGCAIIEMACAKPPWNAEKHSNHLALIFKIASATTAPSIPSHLSPGLRDVAVRCLELQPQDRPPSRELLKHPVFRTTW

Assays:
HEK293 cells = experiment: MEKK1 staining and TdT-mediated dUTP incorporation (DNA fragmentation) in transfected cells; format: cell-based, Human
Procedure: Human embryonal kidney 293 cells (HEK293) stably expressing the EBNA-1 protein from Epstein-Barr virus (Invitrogen) were grown in Dulbecco's modified Eagle's medium (DMEM) supplemented with 100 U/ml penicillin/streptomycin and containing 10% bovine calf serum (BCS). The cells were transfected using lipofectamine (Gibco).
Cells were grown on glass coverslips and transfected using lipofectamine. Two days after transfection, the medium was removed and the cells were fixed in 2% paraformaldehyde, 3% sucrose in phosphate buffered saline (PBS) for 10 min at room temperature. Following three washes with PBS, the cells were permeabilized for 10 min with 2% Triton-X100 in PBS. After three PBS washes, the cells were blocked with filtered cultured medium for 15 min. The coverslips were then incubated 1 hour in TdT reaction mix (200 mM potassium cacodylate, 25 mM Tris.HCl, pH 6.6, 250 μg/ml BSA, 5 mM CoCl2, 0.25 U/μl TdT [Boehringer], 10 μM biotin-dUTP [Boehringer]) at 37° C. in a humidifed atmosphere. […] The coverslips were then washed 6× over a 30 min period with PBS and incubated 1 hour at room temperature with a 1/1000 dilution in filtered culture medium of a donkey anti-rabbit, Cy^3-conjugated, antibody (Jackson Immunological) mixed with 5 μg/ml streptavidin conjugated with FITC (Jackson Immunological). The coverslips were washed 6× with PBS and incubated overnight in PBS before being mounted in 20 mg/ml o-phenyldiamine-diHCl (Sigma) in 0.1 M Tris pH 8.5, 90% glycerol. Images were taken using a Leica DMRXA microscope and analyzed with the SlideBook v2.0 software (Intelligent Imaging Innovations, Denver). The subcellular localization of endogenous MEKK1 observed with the anti-COOH-terminal MEKK1 antibody was identical to that observed with a second antibody recognizing the NH2-terminal portion of the MEKK1 protein.

ERK2 = ERK2 immunoprecipitation kinase assay, transfected HEK293 cells; format: cell-based, Human; conditions: co-expression with MEKK1
Procedure: (§1) Lysis buffer (70 mM β-glycerophosphate, 1 mM EGTA, 100 μM Na3VO4, 1 mM DTT, 2 mM MgCl2, 0.5% Triton-X100, 20 μg/ml aprotinin) was added to cells 15-24 hours after transfection. Cellular debris was removed by centrifugation at 8,000xg for 5 min. Protein concentration was normalized by Bradford assay using BSA as standard.
ERK2 was immunoprecipitated as described above for the JNK isoforms using the ERK2 (C-14) antibody (Santa Cruz Biotechnology). The beads were washed twice with 1 ml lysis buffer and twice with 1 ml lysis buffer without Triton-X100. […] The samples were washed thrice for 5 min each in 75 mM phosphoric acid and once for 2 min in acetone, air-dried, and their radioactivity determined in a β counter.

MEKK1 [1] = experiment: SEK1 K→M phosphorylation by MEKK1 immunoprecipitates; format: biochemical, mouse; conditions: HEK293 lysates; 95-012 antibody
Procedure: MEKK1 was immunoprecipitated from cell lysates (200-500 μg) with the antibodies raised against specific sequences of MEKK1 or the 12CA5 antibody that recognizes the HA-tag sequence.

MEKK1 [2] = experiment: Immunoblot of cleavage fragments of transfected HA-tagged MEKK1 in HEK293 cells; format: cell-based, Human
Excerpt: The full length cDNA encoding mouse MEKK1 was modified by addition of the HA-tag sequence ([…]) (SEQ ID NO: 12) at its NH2-terminus and inserted into the expression plasmid pCEP4 (Invitrogen), resulting in plasmid MEKK1.cp4. The MEKK1 sequences DTVD (amino acids 871-874) and DEVE (amino acids 857-860) in MEKK1.cp4 were substituted with alanines using a PCR strategy. The resulting plasmids were named DTVD_A.cp4 and DEVE_A.cp4. The cDNAs for CrmA (Pickup et al., 1986), p35 (Cartier et al., 1994), JNK1-APF (Dérijard et al., 1994) and JNK2-APF (Kallunki et al., 1994) were subcloned in pCEP4 in which the hygromycin resistance gene had been removed, resulting in plasmids CrmA.cp_, p35.cp_, JNK1_APF.cp and JNK2_APF.cp_. Plasmid pCDNA—3.cp4 is the result of the ligation of pCEP4 and pCDNA-3.
200-400 μg cell lysate protein was subjected to SDS-9% PAGE and transferred to nitrocellulose membranes. Blots were performed exactly as described (Widmann et al., 1995). To detect HA-tagged proteins, the mouse monoclonal antibody 12CA5 (Babco) was used as the primary antibody, followed by a rabbit anti-mouse antibody (Cappel). HRP-conjugated protein A at a 1/5000 dilution (Zymed) and ^125I-protein A at a 1/500 dilution (Dupont NEN) were then used for enhanced chemiluminescence (ECL) detection and for quantification using the phosphorimager. To detect MEKK1, 3 different ploclonal antisera were used as primary antibodies, followed by ECL detection using HRP-protein A (see above). These sera were generated by injecting rabbits with GST proteins fused with different portions of the MEKK1 protein.

c-Jun kinase (JNK) = experiment: c-Jun kinase assay, transfected HEK293 cells; format: cell-based, Human
Procedure: as §1
c-Jun kinase (JNK) activity was measured using a solid phase kinase assay in which glutathione S-transferase-c-Jun(1-79) (GST-Jun) bound to glutathione-Sepharose 4B beads was used to affinity-purify JNK from cell lysates as described (Gardner and Johnson, 1996; Hibi et al., 1993). Alternatively, JNKI or JNK2 were immunoprecipitated with isoform specific antibodies (Santa Cruz Biotechnology) and GST-Jun used as substrate in an in vitro kinase assay (Hibi et al., 1993). Quantitation of the phosphorylation of GST-Jun was performed with a Phosphorlmager.

[3] = co-expression with MEKK1, 6 independent experiments

Row | Molecule | expressing cells showing DNA breaks (HEK293 cells; co-expression with ΔMEKK1) | cells showing some DNA fragmentation (HEK293 cells; cotransfected with MEKK1) | effect on activation of ERK2 by MEKK1 (ERK2) | SEK1 phosphorylation by COOH-terminal antibody immunoprecipitates (MEKK1 [1]) | amount of fragment A (MEKK1 [2]; [3]) | diminution of the amount of fragment B (MEKK1 [2]; [3]) | effect on activation of the JNKs by MEKK1 (c-Jun kinase (JNK); co-expression with MEKK1) | reduction in number of expressing cells showing DNA fragmentation (HEK293 cells; compared to wild-type MEKK1 or the DEVE→A mutant) | DNA fragmentation (HEK293 cells; expression in HEK293 cells) | MEKK1 cleavage fragments generated (MEKK1 [2]; mutants transfected into HEK293 cells) | JNK activation (c-Jun kinase (JNK); expression in HEK293 cells)
1 | B1 | 10% | about 5% | unaffected | reached the same level of phosphorylation observed when the 12CA5 antibody was used | unchanged | 90% | unaffected |  |  |  | 
2 | B2 |  |  |  | reduced |  |  |  | 65% | little DNA fragmentation | only cleaved into fragments A and D | activated JNK to the same level as wild type MEKK1
